Results published in paper PMC13079917 (2026).
Where “and” joins values, the source holds several entries; their conditions need not be identical. Identical values can stand only once. Like-named read-outs stand apart in the source and are kept apart here.

B1: L9 Fab (Fab, V domains shown)
VH: QVKLVESGGGVVQPGRSLRLSCEASGFIFSTYGMHWVRQAPGKGLEWVAVIWFDGSNIYYADSVKGRFTISRDNSKNTVFMQMDSLRAEDTAVYYCHRNFYDGSGPFDYWGQGTLVTVSS
VL: DIQMTQSPSTLSASVGDRVTITCRASQFISRWLAWYQQKPGKAPKLLIYKASSLESGVPSRFSGSGSETHFTLTISSLQPDDVATYYCQEYTSYGRTFGQGTKVEIK

Key:
Test in all cases: SPR
L9 Fab [1] = molecular target: B1
L9 Fab [2] = molecular target: B1; remark: listed apart in the source
SES-1 [3] = molecular target: SES-1
SES-1 [4] = molecular target: SES-1; remark: listed apart in the source

Binder | Kd (L9 Fab [1]) [nM] | koff (L9 Fab [2]) [s⁻¹] | Kd (SES-1 [3]) | Kd (SES-1 [4]) [nM]
SES-2 (single epitope scaffold 2) (designed binder) AVEDALKKAEAAGDEAAIARAEILLARVEEAREILANPNVDPAVGWALLAAVAPEIAALAGGSY | 42 | 0.014 |  | 
B1 |  |  | 78 nM and 84 nM | 78
